Experimental data from US6942852.

Biological target: CCR5 chemokine receptor (human) (UniProt P51681)
Assay: cell-based or functional assay

UniProt P51681, sequence (P51681 whole entry): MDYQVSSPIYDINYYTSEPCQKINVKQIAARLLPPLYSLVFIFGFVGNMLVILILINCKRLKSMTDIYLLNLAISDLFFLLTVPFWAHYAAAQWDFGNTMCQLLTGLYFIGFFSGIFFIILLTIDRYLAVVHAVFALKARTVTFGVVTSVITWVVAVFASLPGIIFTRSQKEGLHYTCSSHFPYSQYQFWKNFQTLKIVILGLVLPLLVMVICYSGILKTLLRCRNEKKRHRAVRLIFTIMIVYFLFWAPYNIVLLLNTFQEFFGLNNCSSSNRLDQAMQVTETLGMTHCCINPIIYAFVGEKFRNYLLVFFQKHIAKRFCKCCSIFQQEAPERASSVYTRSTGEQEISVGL

Substance	inhibition of replication of dual-tropic HIV-1 89.6 in vitro (p24 ELISA) [%]	inhibition of replication of primary dual-tropic HIV-1 isolates from patients in vitro (p24 ELISA) [%]	potency at preventing infection of PBMC with R5 HIV-1 SF162, relative to AOP-RANTES [fold]
aminooxypentane-RANTES (2-68) (from UniProt P13501 25-91) (ligand)	50	80 to 90	–
n-nonanoyl-RANTES (2-68) (from UniProt P13501 25-91) (ligand)	–	–	3
